Reference: patent US20200317768A1 (published 2020)

T1: cynomolgus monkey FcγRIIIaS extracellular domain, C-terminal His-tag (cynomolgus monkey, UniProt Q8SPW2 21-206 at identity 1.00))
T1 construct: also called cyno FcγRIIIaS; FcgRIIIaS
T1 chain: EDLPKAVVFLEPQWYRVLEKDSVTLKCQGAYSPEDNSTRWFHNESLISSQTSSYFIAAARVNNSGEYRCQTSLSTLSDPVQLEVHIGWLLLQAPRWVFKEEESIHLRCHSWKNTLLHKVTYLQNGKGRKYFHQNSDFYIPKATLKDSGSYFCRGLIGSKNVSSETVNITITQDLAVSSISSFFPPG

T2: cynomolgus monkey FcγRIIb extracellular domain, C-terminal His-tag (cynomolgus monkey)
T2 construct: also called cyno FcγRIIb; cynoFcγRIIb
T2 chain: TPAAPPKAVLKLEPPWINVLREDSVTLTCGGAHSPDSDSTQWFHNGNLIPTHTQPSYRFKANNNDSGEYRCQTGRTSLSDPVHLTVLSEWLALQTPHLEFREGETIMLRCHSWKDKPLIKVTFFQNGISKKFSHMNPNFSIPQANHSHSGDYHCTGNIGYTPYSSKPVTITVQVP

T3: cynomolgus monkey FcγRIIa1 extracellular domain, C-terminal His-tag (cynomolgus monkey)
T3 construct: also called cyno FcγRIIa1; FcgRIIa1
T3 chain: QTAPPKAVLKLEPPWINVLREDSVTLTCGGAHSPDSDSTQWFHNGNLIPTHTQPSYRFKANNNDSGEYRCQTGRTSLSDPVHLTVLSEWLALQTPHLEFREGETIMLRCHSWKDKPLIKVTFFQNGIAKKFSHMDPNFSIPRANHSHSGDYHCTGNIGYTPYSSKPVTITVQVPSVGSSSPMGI

T4: cynomolgus monkey FcγRIIa2 extracellular domain, C-terminal His-tag (cynomolgus monkey)
T4 construct: also called cyno FcγRIIa2; FcgRIIa2
T4 chain: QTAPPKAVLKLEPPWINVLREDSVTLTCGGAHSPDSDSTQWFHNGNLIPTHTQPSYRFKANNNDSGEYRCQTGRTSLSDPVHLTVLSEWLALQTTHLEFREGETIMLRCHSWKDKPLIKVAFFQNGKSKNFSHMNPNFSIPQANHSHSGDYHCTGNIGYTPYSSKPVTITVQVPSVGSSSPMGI

T5: cynomolgus monkey FcγRIIa3 extracellular domain, C-terminal His-tag (cynomolgus monkey)
T5 construct: also called cyno FcγRIIa3; FcgRIIa3
T5 chain: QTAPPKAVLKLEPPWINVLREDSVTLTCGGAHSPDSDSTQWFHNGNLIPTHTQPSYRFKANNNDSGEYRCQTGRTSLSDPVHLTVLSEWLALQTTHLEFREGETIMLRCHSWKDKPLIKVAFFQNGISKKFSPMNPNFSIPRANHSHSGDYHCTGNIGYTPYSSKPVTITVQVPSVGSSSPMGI

T6: Human latent myostatin (human, UniProt O14793 25-266; O14793 267-375)
T6 construct: Biotinylated in the ELISAs; also called human myostatin latent form
T6 sequence 1: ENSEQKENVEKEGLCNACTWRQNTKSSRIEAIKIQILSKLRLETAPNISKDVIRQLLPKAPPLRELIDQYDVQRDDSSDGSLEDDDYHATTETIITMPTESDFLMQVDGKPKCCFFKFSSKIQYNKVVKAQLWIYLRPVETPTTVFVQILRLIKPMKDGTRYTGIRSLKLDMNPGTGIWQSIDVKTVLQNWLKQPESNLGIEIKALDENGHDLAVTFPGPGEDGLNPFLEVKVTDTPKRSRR
T6 sequence 2: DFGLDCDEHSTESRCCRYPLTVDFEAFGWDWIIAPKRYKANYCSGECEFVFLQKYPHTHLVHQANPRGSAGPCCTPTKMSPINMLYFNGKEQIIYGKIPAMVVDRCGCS


Columns and labels:
[1] = molecular target: T1, cynomolgus monkey FcγRIIIaS …; assay: SPR; FcgR bound per captured antibody, normalized to SG1
Protocol: (§1) The kinetic analysis of interactions between these antibodies and FcγR was carried out using BIACORE® T200 or BIACORE® 4000 (GE Healthcare). HBS-EP+ (GE Healthcare) was used as the running buffer, and the measurement temperature was set to 25° C. A chip produced by immobilizing Protein A. Protein A/G or mouse anti-human IgG kappa light chain (BD Biosciences) onto a Series S Sensor Chip CM4 or CM5 (GE Healthcare) by the amine-coupling method was used. […] After the measurement, the antibody captured on the chip was washed off by allowing reaction with 10 mM glycine-HCl, pH1.5 and 25 mM NaOH so that the chip was regenerated and used repeatedly. The sensorgrams obtained as measurement results were analyzed by the 1:1 Langmuir binding model using the BIACORE® Evaluation Software to calculate the binding rate constant ka (L/mol/s) and dissociation rate constant kd (l/s), and the dissociation constant KD (mol/L) was calculated from these values. […] Regarding such interactions, KD values were calculated using the following 1:1 binding model described in BIACORE® T100 Software Handbook BR1006-48 Edition AE.
(§2) The value of the amount of FcγR binding was obtained by dividing the amount of FcγR bound by the amount of each antibody captured.

[2] = molecular target: T2, cynomolgus monkey FcγRIIb extracellular …; assay: as above
Protocol: as §1, §2

[3] = molecular target: T3, cynomolgus monkey FcγRIIa1 …; assay: as above
Protocol: as §1, §2

[4] = molecular target: T4, cynomolgus monkey FcγRIIa2 …; assay: as above
Protocol: as §1, §2

[5] = molecular target: T5, cynomolgus monkey FcγRIIa3 …; assay: as above
Protocol: as §1, §2

Human latent myostatin = molecular target: T6, Human latent myostatin; assay: SPR (BIACORE T200), 37 C, pH7.4, avidity condition (capture 185 RU), 1:1 fit; pH 7.4
Protocol: The kinetic parameters of anti-latent myostatin antibodies against human, cynomolgus monkey (cyno), and mouse latent myostatin were assessed at 37° C. at pH7.4 using a BIACORE® T200 instrument (GE Healthcare). ProA/G (Pierce) was immobilized onto all flow cells of a CM4 chip using amine coupling kit (GE Healthcare). Anti-latent myostatin antibody and analytes were prepared in ACES pH7.4 (20 mM ACES, 150 mM NaCl, 1.2 mM CaCl₂), 0.05% TWEEN® 20, 0.005% NaN₃). […] Then human, cyno, or mouse latent myostatin was injected at 3.125 to 50 nM prepared by two-fold serial dilution, followed by dissociation. The sensor surface was regenerated with 25 mM NaOH. Kinetic parameters were determined by processing and fitting the data to a 1:1 binding model using BIACORE® T200 Evaluation software, version 2.0 (GE Healthcare).
All experimental settings were the same as in Example 7, except that measurements were also performed in ACES pH5.8 buffer in addition to ACES pH7.4 condition. Some antibodies were only measured against human latent myostatin. Antibody capture level was aimed at 185 RU and 18.5 RU, for avidity and affinity assay, respectively. Kinetic parameters were determined using 1:1 Binding fitting using BIACORE® T200 Evaluation software, version 2.0 (GE Healthcare).

Row | amount of FcgR binding (SG1 = 100) [1] | amount of FcgR binding (SG1 = 100) [2] | amount of FcgR binding (SG1 = 100) [3] | amount of FcgR binding (SG1 = 100) [4] | amount of FcgR binding (SG1 = 100) [5] | Kd (Human latent myostatin) | koff (Human latent myostatin) | kon (Human latent myostatin) | Binder
1 | 24 SG1 = 100 | 12 SG1 = 100 | 13 SG1 = 100 | 14 SG1 = 100 | 21 SG1 = 100 | – | – | – | M103205H795-SG173/M103202L889-SK1 (antibody, human IgG1, kappa, also called S267L) heavy: not shown light: DIVMTQSPATLSLSPGERATLSCTSSQSVYHANWLSWFQQKPGQPPKLLIYWASTLAYGVPSRFSGSGSGTDFTLTISSLQPEDAATYYCAGGYGGGRYAFGQGTKVEIKRTVAAPSVFIFPPSDEQLKSGTASVVCLLNNFYPREAKVQWKVDNALQSGNSQESVTEQDSKDSTYSLSSTLTLSKADYEKHKVYACEVTHQGLSSPVTKSFNRGEC
2 | 31 SG1 = 100 | 16 SG1 = 100 | 14 SG1 = 100 | 17 SG1 = 100 | 27 SG1 = 100 | – | – | – | M103205H795-SG172/M103202L889-SK1 (antibody, human IgG1, kappa, also called V266F) heavy: not shown light: DIVMTQSPATLSLSPGERATLSCTSSQSVYHANWLSWFQQKPGQPPKLLIYWASTLAYGVPSRFSGSGSGTDFTLTISSLQPEDAATYYCAGGYGGGRYAFGQGTKVEIKRTVAAPSVFIFPPSDEQLKSGTASVVCLLNNFYPREAKVQWKVDNALQSGNSQESVTEQDSKDSTYSLSSTLTLSKADYEKHKVYACEVTHQGLSSPVTKSFNRGEC
3 | – | – | – | – | – | 0.163 nM | 0.000217 s⁻¹ | 1.33e+06 M⁻¹ s⁻¹ | MS_M103205H707-SG1/M103202L802-SK1 (antibody, human IgG1, kappa, V domains shown, also called MS1032LO04-SG1; MSLO-04) VH: QVTLKESGPVLVKPTETLTLTCTVSGIDLSHYDISWVRQAPGKGLEWVGIISYAGSTYYASWAKGRLTISKDTSKNQVVLTMTNMDPVDTATYYCARGVPAYSHGGDLWGQGTLVTVSS VL: DIVMTQSPATLSLSPGERATLSCTSSQSVYHDNWLSWFQQKPGQPPKLLIYWASTLAYGVPSRFSGSGSGTDFTLTISSLQPEDAATYYCAGGYGGGLYAFGQGTKVEIKR

The next lines start with the binder.

Row | Binder | amount of FcgR binding (SG1 = 100) [1] | amount of FcgR binding (SG1 = 100) [2] | amount of FcgR binding (SG1 = 100) [3] | amount of FcgR binding (SG1 = 100) [4] | amount of FcgR binding (SG1 = 100) [5] | Kd (Human latent myostatin) | koff (Human latent myostatin) | kon (Human latent myostatin)
4 | M103205H795-MY001/M103202L889-SK1 (antibody, human IgG1, kappa, also called G236N) heavy: not shown light: DIVMTQSPATLSLSPGERATLSCTSSQSVYHANWLSWFQQKPGQPPKLLIYWASTLAYGVPSRFSGSGSGTDFTLTISSLQPEDAATYYCAGGYGGGRYAFGQGTKVEIKRTVAAPSVFIFPPSDEQLKSGTASVVCLLNNFYPREAKVQWKVDNALQSGNSQESVTEQDSKDSTYSLSSTLTLSKADYEKHKVYACEVTHQGLSSPVTKSFNRGEC | 15 SG1 = 100 | 85 SG1 = 100 | 83 SG1 = 100 | 86 SG1 = 100 | 62 SG1 = 100 | – | – | –
5 | M103205H795-SG169/M103202L889-SK1 (antibody, human IgG1, kappa, also called P238M) heavy: not shown light: DIVMTQSPATLSLSPGERATLSCTSSQSVYHANWLSWFQQKPGQPPKLLIYWASTLAYGVPSRFSGSGSGTDFTLTISSLQPEDAATYYCAGGYGGGRYAFGQGTKVEIKRTVAAPSVFIFPPSDEQLKSGTASVVCLLNNFYPREAKVQWKVDNALQSGNSQESVTEQDSKDSTYSLSSTLTLSKADYEKHKVYACEVTHQGLSSPVTKSFNRGEC | 22 SG1 = 100 | 22 SG1 = 100 | 17 SG1 = 100 | 16 SG1 = 100 | 32 SG1 = 100 | – | – | –
6 | M103205H795-SG168/M103202L889-SK1 (antibody, human IgG1, kappa, also called P238E) heavy: not shown light: DIVMTQSPATLSLSPGERATLSCTSSQSVYHANWLSWFQQKPGQPPKLLIYWASTLAYGVPSRFSGSGSGTDFTLTISSLQPEDAATYYCAGGYGGGRYAFGQGTKVEIKRTVAAPSVFIFPPSDEQLKSGTASVVCLLNNFYPREAKVQWKVDNALQSGNSQESVTEQDSKDSTYSLSSTLTLSKADYEKHKVYACEVTHQGLSSPVTKSFNRGEC | 13 SG1 = 100 | 28 SG1 = 100 | 21 SG1 = 100 | 16 SG1 = 100 | 30 SG1 = 100 | – | – | –
7 | M103205H795-SG166/M103202L889-SK1 (antibody, human IgG1, kappa, also called G237D) heavy: not shown light: DIVMTQSPATLSLSPGERATLSCTSSQSVYHANWLSWFQQKPGQPPKLLIYWASTLAYGVPSRFSGSGSGTDFTLTISSLQPEDAATYYCAGGYGGGRYAFGQGTKVEIKRTVAAPSVFIFPPSDEQLKSGTASVVCLLNNFYPREAKVQWKVDNALQSGNSQESVTEQDSKDSTYSLSSTLTLSKADYEKHKVYACEVTHQGLSSPVTKSFNRGEC | 5 SG1 = 100 | – | 10 SG1 = 100 | 10 SG1 = 100 | 17 SG1 = 100 | – | – | –
8 | M103205H795-SG170/M103202L889-SK1 (antibody, human IgG1, kappa, also called P238Q) heavy: not shown light: DIVMTQSPATLSLSPGERATLSCTSSQSVYHANWLSWFQQKPGQPPKLLIYWASTLAYGVPSRFSGSGSGTDFTLTISSLQPEDAATYYCAGGYGGGRYAFGQGTKVEIKRTVAAPSVFIFPPSDEQLKSGTASVVCLLNNFYPREAKVQWKVDNALQSGNSQESVTEQDSKDSTYSLSSTLTLSKADYEKHKVYACEVTHQGLSSPVTKSFNRGEC | 12 SG1 = 100 | 18 SG1 = 100 | 16 SG1 = 100 | 15 SG1 = 100 | 21 SG1 = 100 | – | – | –
9 | M103205H795-SG167/M103202L889-SK1 (antibody, human IgG1, kappa, also called P238Y) heavy: not shown light: DIVMTQSPATLSLSPGERATLSCTSSQSVYHANWLSWFQQKPGQPPKLLIYWASTLAYGVPSRFSGSGSGTDFTLTISSLQPEDAATYYCAGGYGGGRYAFGQGTKVEIKRTVAAPSVFIFPPSDEQLKSGTASVVCLLNNFYPREAKVQWKVDNALQSGNSQESVTEQDSKDSTYSLSSTLTLSKADYEKHKVYACEVTHQGLSSPVTKSFNRGEC | 14 SG1 = 100 | 22 SG1 = 100 | 18 SG1 = 100 | 14 SG1 = 100 | 38 SG1 = 100 | – | – | –
